Legend:
[1] = target: the molecule itself; experiment: crystal structure; hanging drop, 0.2 M NaCl, 0.1 M Bis-Tris pH 5.5, 20–23% PEG 3350; apo crystals and crystals soaked with 10 mM MgCl2 and 10 mM nucleotide; two mtPAP molecules in the asymmetric unit
[2] = target: the molecule itself; experiment: SEC; Superdex-200 elution profiles of WT and mutated mtPAP proteins

Row | Protein | binding result [2] | other results
1 | chicken mitochondrial poly(A) RNA polymerase, mature wild type (residues 37–568) (enzyme, Gallus gallus, UniProt F1NBW0 37-568, looked up, Expression construct pNIC28-BsaI; also called mtPAP; WT mtPAP; source: E. coli KRX/pRARE2, purified (HisTrap, TEV cleavage, HiTrap Heparin)) AGGAEETDAEVSARKKTFTEVQTERLEQADRSVLIKCPSKLNEKKLLQYLSSHGKIDNYFFFENRGIHALIEFSEKSSVASLQAVTGIPKAAEHHVVPYKSRLFTFTLKNPGSQAAEERPVKISPQSHIPVNELIPKLCHADSISSQMYILLNEYQLTEENIKLRYLACSLVRDFARAYFPDSTVKPFGSSVNTFGKLGCDVDMFLDFHDIQKHATKMKKGPFEMEYQMKRLPSERLATQKILSIIGDCLDNFGPGYSSVQKILNARCPLVKFSHQPTGFQCDLSVSNSIAIRCSELLYIYGCLDPRVRALVFSLRCWARVHGLTNSVPGTWITNFSLTMMIMFFLQKRSPPIIPTLDQLKELADEKDKHVIGGYDCSFVSDLSKIKPTKNTETLDELLCDFFQYFGNFDFRKNSLNLRKGKEVNKPESSPLYIWNPFEQDLNISKNVNQPQLEKFVAMARESAWILQKEDKTQQMINKEPWGLAAVLIPFGKSNPNTMKSRTKGIGSETIKSLLDSLKLSDANNLQKAVGK | – | stoichiometry N [1]: 2
2 | chicken mtPAP K112E mutant (enzyme, Gallus gallus, UniProt F1NBW0 37-568, looked up, mitochondrial poly(A) polymerase (mtPAP), Gallus gallus, residues 37-568, K112E) AGGAEETDAEVSARKKTFTEVQTERLEQADRSVLIKCPSKLNEKKLLQYLSSHGKIDNYFFFENRGIHALIEFSEESSVASLQAVTGIPKAAEHHVVPYKSRLFTFTLKNPGSQAAEERPVKISPQSHIPVNELIPKLCHADSISSQMYILLNEYQLTEENIKLRYLACSLVRDFARAYFPDSTVKPFGSSVNTFGKLGCDVDMFLDFHDIQKHATKMKKGPFEMEYQMKRLPSERLATQKILSIIGDCLDNFGPGYSSVQKILNARCPLVKFSHQPTGFQCDLSVSNSIAIRCSELLYIYGCLDPRVRALVFSLRCWARVHGLTNSVPGTWITNFSLTMMIMFFLQKRSPPIIPTLDQLKELADEKDKHVIGGYDCSFVSDLSKIKPTKNTETLDELLCDFFQYFGNFDFRKNSLNLRKGKEVNKPESSPLYIWNPFEQDLNISKNVNQPQLEKFVAMARESAWILQKEDKTQQMINKEPWGLAAVLIPFGKSNPNTMKSRTKGIGSETIKSLLDSLKLSDANNLQKAVGK | binds | –
3 | chicken mtPAP N472D mutant (residues 37–568) (enzyme, Gallus gallus, UniProt F1NBW0 37-568, looked up, mitochondrial poly(A) polymerase (mtPAP), Gallus gallus, residues 37-568, N472D (counterpart of human N478D); Purified by the same procedure as the wild type; also called N472D mtPAP; SPAX4 N472D mtPAP mutant; source: E. coli KRX/pRARE2, purified (HisTrap, TEV cleavage, HiTrap Heparin)) AGGAEETDAEVSARKKTFTEVQTERLEQADRSVLIKCPSKLNEKKLLQYLSSHGKIDNYFFFENRGIHALIEFSEKSSVASLQAVTGIPKAAEHHVVPYKSRLFTFTLKNPGSQAAEERPVKISPQSHIPVNELIPKLCHADSISSQMYILLNEYQLTEENIKLRYLACSLVRDFARAYFPDSTVKPFGSSVNTFGKLGCDVDMFLDFHDIQKHATKMKKGPFEMEYQMKRLPSERLATQKILSIIGDCLDNFGPGYSSVQKILNARCPLVKFSHQPTGFQCDLSVSNSIAIRCSELLYIYGCLDPRVRALVFSLRCWARVHGLTNSVPGTWITNFSLTMMIMFFLQKRSPPIIPTLDQLKELADEKDKHVIGGYDCSFVSDLSKIKPTKNTETLDELLCDFFQYFGNFDFRKNSLNLRKGKEVNKPESSPLYIWDPFEQDLNISKNVNQPQLEKFVAMARESAWILQKEDKTQQMINKEPWGLAAVLIPFGKSNPNTMKSRTKGIGSETIKSLLDSLKLSDANNLQKAVGK | – | binding result [1]: binds
4 | chicken mtPAP R272E mutant (enzyme, Gallus gallus, UniProt F1NBW0 37-568, looked up, mitochondrial poly(A) polymerase (mtPAP), Gallus gallus, residues 37-568, R272E) AGGAEETDAEVSARKKTFTEVQTERLEQADRSVLIKCPSKLNEKKLLQYLSSHGKIDNYFFFENRGIHALIEFSEKSSVASLQAVTGIPKAAEHHVVPYKSRLFTFTLKNPGSQAAEERPVKISPQSHIPVNELIPKLCHADSISSQMYILLNEYQLTEENIKLRYLACSLVRDFARAYFPDSTVKPFGSSVNTFGKLGCDVDMFLDFHDIQKHATKMKKGPFEMEYQMKRLPSEELATQKILSIIGDCLDNFGPGYSSVQKILNARCPLVKFSHQPTGFQCDLSVSNSIAIRCSELLYIYGCLDPRVRALVFSLRCWARVHGLTNSVPGTWITNFSLTMMIMFFLQKRSPPIIPTLDQLKELADEKDKHVIGGYDCSFVSDLSKIKPTKNTETLDELLCDFFQYFGNFDFRKNSLNLRKGKEVNKPESSPLYIWNPFEQDLNISKNVNQPQLEKFVAMARESAWILQKEDKTQQMINKEPWGLAAVLIPFGKSNPNTMKSRTKGIGSETIKSLLDSLKLSDANNLQKAVGK | binds | –
5 | chicken mtPAP triple mutant K76E, K80–81E (enzyme, Gallus gallus, UniProt F1NBW0 37-568, looked up, mitochondrial poly(A) polymerase (mtPAP), Gallus gallus, residues 37-568, charge-reversal triple mutant; The methods list K80–81E and K76E apart; the results call it a triple mutant) AGGAEETDAEVSARKKTFTEVQTERLEQADRSVLIKCPSELNEEELLQYLSSHGKIDNYFFFENRGIHALIEFSEKSSVASLQAVTGIPKAAEHHVVPYKSRLFTFTLKNPGSQAAEERPVKISPQSHIPVNELIPKLCHADSISSQMYILLNEYQLTEENIKLRYLACSLVRDFARAYFPDSTVKPFGSSVNTFGKLGCDVDMFLDFHDIQKHATKMKKGPFEMEYQMKRLPSERLATQKILSIIGDCLDNFGPGYSSVQKILNARCPLVKFSHQPTGFQCDLSVSNSIAIRCSELLYIYGCLDPRVRALVFSLRCWARVHGLTNSVPGTWITNFSLTMMIMFFLQKRSPPIIPTLDQLKELADEKDKHVIGGYDCSFVSDLSKIKPTKNTETLDELLCDFFQYFGNFDFRKNSLNLRKGKEVNKPESSPLYIWNPFEQDLNISKNVNQPQLEKFVAMARESAWILQKEDKTQQMINKEPWGLAAVLIPFGKSNPNTMKSRTKGIGSETIKSLLDSLKLSDANNLQKAVGK | binds | –

Source: article PMC4605311, “Structure of mitochondrial poly(A) RNA polymerase reveals the structural basis for dimerization, ATP selectivity and the SPAX4 disease phenotype” (Nucleic Acids Research, 2015)
